Laboratory results reported in patent publication US20090170718.

Molecular target: Botulinum neurotoxin type A light chain (BoNT/A-rLc) (UniProt P0DPI1)

AGCAGCACAGAGGTCAGATGNNNNNNNNNNNNNNNNNNNNNNNNNNNNNNNNNNNNNNNNNNNNNNNNNNNNNNNNNNNNCCTATGCGTGCTACCGTGAA [round 1 enriched aptamer pool (M-SELEX)]
Kd: 0.033 µM
